Here are results for 3 substances from patent publication US20220411487A1.

Experiment [1] addresses full length mouse TMPRSS6 on HEK293 cells (HEK293/mTMPRSS6) (mouse) (UniProt Q9DBI0). Nature of the experiment: flow cytometry, HEK293 cells expressing target, secondary alone.
Experiment [2] concerns the target full length human TMPRSS6 on HEK293 cells (HEK293/hTMPRSS6) (human) (UniProt Q8IU80). The experiment is described as above.
Experiment [3] has as its target catalytically inactive full length human TMPRSS6 on HEK293 cells (HEK293/hTMPRSS6 (S762A)) (human) (UniProt Q8IU80). The experiment is described as above.
For experiment [4], the target named is full length cynomolgous monkey TMPRSS6 on HEK293 cells (HEK293/mfTMPRSS6) (cynomolgous monkey/Macaca fascicularis). Described as above.
Sequence of full length cynomolgous monkey TMPRSS6 on HEK293 cells (HEK293/mfTMPRSS6) (cynomolgous monkey/Macaca fascicularis) (Q8IU80 other isoform, or with tags, fused parts or gaps): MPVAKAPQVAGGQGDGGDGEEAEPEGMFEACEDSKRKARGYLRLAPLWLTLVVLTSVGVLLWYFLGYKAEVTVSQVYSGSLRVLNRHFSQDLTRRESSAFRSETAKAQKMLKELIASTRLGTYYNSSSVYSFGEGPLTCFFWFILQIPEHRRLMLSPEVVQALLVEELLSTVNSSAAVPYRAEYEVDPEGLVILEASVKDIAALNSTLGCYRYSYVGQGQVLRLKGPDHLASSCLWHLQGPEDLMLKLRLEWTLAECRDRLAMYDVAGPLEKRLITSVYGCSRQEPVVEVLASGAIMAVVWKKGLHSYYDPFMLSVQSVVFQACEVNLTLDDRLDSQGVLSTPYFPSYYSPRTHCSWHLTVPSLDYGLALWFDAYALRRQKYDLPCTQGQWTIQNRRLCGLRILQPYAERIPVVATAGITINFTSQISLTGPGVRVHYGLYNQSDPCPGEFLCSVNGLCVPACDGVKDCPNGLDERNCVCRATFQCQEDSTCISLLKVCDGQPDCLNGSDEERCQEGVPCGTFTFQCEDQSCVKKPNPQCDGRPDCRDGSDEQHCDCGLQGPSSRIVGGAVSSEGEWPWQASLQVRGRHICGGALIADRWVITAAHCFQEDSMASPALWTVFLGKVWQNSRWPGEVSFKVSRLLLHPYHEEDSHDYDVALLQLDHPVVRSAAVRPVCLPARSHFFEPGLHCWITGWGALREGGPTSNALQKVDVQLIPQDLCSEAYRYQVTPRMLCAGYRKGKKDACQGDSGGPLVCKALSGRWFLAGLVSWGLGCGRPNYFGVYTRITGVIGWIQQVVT
Experiment [5] deals with full length human TMPRSS6 with a C-terminal triple myc tag on HEK293.hHJV cells (HEK293.hHJV/3xMyc.hTMPRSS6) (human) (UniProt Q8IU80). The experiment in a line: cell-based or functional assay.
Experiment [6] addresses full-length mouse TMPRSS6 with a C-terminal triple myc tag on HEK293.hHJV cells (HEK293.hHJV/3xMyc.mTMPRSS6) (mouse) (UniProt Q9DBI0). Nature of the experiment: cell-based or functional assay.
In experiment [7] the target is full length mouse TMPRSS6 on HEK293 cells (HEK293/mTMPRSS6) (mouse) (UniProt Q9DBI0). The experiment in a line: flow cytometry, HEK293 cells expressing target.
Sequence of full length mouse TMPRSS6 on HEK293 cells (HEK293/mTMPRSS6) (mouse) (Q9DBI0 whole entry): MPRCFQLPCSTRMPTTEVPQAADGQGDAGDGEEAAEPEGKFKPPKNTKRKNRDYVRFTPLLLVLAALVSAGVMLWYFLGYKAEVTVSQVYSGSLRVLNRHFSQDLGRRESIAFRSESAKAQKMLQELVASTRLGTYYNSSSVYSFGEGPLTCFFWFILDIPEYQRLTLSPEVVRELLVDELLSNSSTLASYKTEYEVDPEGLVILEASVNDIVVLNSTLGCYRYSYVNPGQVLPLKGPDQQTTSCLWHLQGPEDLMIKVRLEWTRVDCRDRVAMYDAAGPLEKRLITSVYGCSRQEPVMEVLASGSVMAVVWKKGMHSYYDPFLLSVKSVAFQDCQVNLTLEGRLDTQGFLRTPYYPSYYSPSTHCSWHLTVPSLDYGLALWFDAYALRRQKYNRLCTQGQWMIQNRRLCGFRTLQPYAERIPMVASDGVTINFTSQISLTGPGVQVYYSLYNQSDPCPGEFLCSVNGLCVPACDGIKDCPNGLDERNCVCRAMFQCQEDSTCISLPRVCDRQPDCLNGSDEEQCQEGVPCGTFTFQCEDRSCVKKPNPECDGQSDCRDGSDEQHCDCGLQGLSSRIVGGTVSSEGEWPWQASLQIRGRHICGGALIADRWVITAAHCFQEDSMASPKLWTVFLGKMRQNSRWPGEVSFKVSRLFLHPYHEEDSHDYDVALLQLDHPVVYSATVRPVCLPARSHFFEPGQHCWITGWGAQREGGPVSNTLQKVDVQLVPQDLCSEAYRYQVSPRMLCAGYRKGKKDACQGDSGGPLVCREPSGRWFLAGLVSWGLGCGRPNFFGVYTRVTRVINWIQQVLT
For experiment [8], the target named is full length human TMPRSS6 on HEK293 cells (HEK293/hTMPRSS6) (human) (UniProt Q8IU80). Nature of the experiment: flow cytometry, HEK293 cells expressing target.
Sequence of full length human TMPRSS6 on HEK293 cells (HEK293/hTMPRSS6) (human) (Q8IU80 10-811 limits assumed): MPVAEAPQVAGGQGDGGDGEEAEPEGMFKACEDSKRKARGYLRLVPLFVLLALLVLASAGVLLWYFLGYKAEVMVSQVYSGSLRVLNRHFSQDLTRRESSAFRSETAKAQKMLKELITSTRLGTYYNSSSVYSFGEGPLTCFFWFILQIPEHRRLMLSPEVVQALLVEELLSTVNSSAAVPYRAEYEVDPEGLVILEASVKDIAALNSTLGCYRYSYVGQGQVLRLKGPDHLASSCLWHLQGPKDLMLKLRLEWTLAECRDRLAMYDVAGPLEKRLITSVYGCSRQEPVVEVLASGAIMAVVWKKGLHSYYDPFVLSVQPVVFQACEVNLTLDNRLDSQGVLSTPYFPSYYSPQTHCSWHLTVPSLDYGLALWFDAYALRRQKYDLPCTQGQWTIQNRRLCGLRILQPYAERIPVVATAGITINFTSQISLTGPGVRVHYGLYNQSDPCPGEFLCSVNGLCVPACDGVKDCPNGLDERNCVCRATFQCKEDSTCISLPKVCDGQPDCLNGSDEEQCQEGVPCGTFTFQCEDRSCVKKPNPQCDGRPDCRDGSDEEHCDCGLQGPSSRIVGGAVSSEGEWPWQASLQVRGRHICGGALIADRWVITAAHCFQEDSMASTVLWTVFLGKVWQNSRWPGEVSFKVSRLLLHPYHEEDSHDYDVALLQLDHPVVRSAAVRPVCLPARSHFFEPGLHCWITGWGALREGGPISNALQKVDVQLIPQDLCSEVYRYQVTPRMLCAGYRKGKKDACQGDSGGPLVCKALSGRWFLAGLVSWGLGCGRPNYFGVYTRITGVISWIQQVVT
For experiment [9], the target named is catalytically inactive full length human TMPRSS6 on HEK293 cells (HEK293/hTMPRSS6 (S762A)) (human) (UniProt Q8IU80). Nature of the experiment: flow cytometry, HEK293 cells expressing target.
Sequence of catalytically inactive full length human TMPRSS6 on HEK293 cells (HEK293/hTMPRSS6 (S762A)) (human) (Q8IU80 10-811 S762A): as the sequence (Q8IU80 10-811 limits assumed) above, with S753A counted along it
The target of experiment [10] is full length cynomolgous monkey TMPRSS6 on HEK293 cells (HEK293/mfTMPRSS6) (cynomolgous monkey/Macaca fascicularis). The experiment in a line: flow cytometry, HEK293 cells expressing target.

For the substance “Alexa Fluor-647 conjugated anti-human secondary antibody (Jackson ImmunoResearch #109-607-003)”, the Max. Fold Binding (fold over unstained control) in experiment [1] turned out to be 1; in experiment [2], 1; in experiment [3], 2; in experiment [4], 1.
With Isotype Control (antibody), in experiment [5], the Geometric Mean Fluorescence Intensity of cell surface hHJV was 11700, the Inhibition (%) of soluble hHJV release (ELISA) was 15.7% and the Median Fluorescence Intensity of cell surface hHJV came to 13000. In experiment [6], the Geometric Mean Fluorescence Intensity of cell surface hHJV turned out to be 7750, the Inhibition (%) of soluble hHJV release (ELISA) is 5.2% and the Median Fluorescence Intensity of cell surface hHJV stood at 7230.
With hIgG Subclass Control (antibody), the Max. Fold Binding (fold over unstained control) in experiment [7] turned out to be 1; in experiment [8] it was 1; in [9], 3; in experiment [10], 1.
